Reference: patent publication US20250304927A1, “PRO-PEPTIDE VARIANTS FOR MODULATING ACTIVITY OF TRANSGLUTAMINASES” (CURIE CO. INC., priority 2022, published 2025)

Tests used:
[1] = biological target: T1, mature evolved transglutaminase (SEQ ID NO: 5) (Streptomyces mobaraensis, UniProt P81453, G359A/K167H/K227R/K228R/N358M/Q126S/Q150A/Q200L); assay: transglutaminase thermostability: activity after being held at 37-50 °C; assay type: biochemical; design: key: The symbol, —, represents not determined, neutral, or reduced performance; details: relative to wild-type pro-peptide; held at 37° C.-50° C. for 30 minutes, diluted 10-fold to 100-fold
T1 construct: hexa-His tag with two amino acid linker (C); made in house; host or cells: E. coli BL21 (DE3)
T1 sequence (P81453 other isoform, or with tags, fused parts or gaps Q126S/Q150A/K167H/Q200L/K227R/K228R/N358M/G359A): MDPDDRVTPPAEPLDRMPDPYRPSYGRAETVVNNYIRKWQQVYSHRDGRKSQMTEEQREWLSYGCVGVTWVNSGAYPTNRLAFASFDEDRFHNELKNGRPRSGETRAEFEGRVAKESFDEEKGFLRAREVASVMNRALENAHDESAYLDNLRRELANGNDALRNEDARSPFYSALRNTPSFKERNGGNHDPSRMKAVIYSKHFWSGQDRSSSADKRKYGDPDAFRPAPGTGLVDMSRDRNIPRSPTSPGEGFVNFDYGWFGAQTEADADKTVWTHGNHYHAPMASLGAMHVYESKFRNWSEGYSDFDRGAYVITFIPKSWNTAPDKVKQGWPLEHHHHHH
Procedure: The terms “stability” and “thermostability” are used interchangeably to refer to increased residual activity of mature transglutaminase after incubation at elevated temperatures. In some embodiments, a pro-peptide variant increases the stability of a mature transglutaminase compared to the wild type pro-peptide. Measurement of stability is depicted in Example 4.
It is believed that these pro-peptide variants confer thermal stability to mature transglutaminase.

[2] = biological target: T1, mature evolved transglutaminase (SEQ ID NO: 5); assay: casein assay, inhibition by pro-peptide variants (Method B, activated zymogen); assay type: biochemical; design: key: The symbol, —, represents not determined, neutral, or reduced performance; details: relative to wild-type pro-peptide, diluted approximately 20-fold into casein assay solution
From the text: Method B. The gene coding for a Pro-transglutaminase (i.e., zymogen form of transglutaminase) variant with the wild-type pro-domain (SEQ ID NO: 2) and an evolved mature domain including a C-terminal His tag (SEQ ID NO: 5), and was cloned into a pET vector operatively linked to the T7 promoter. The expression vector also contains the pMB1 origin of replication and a kanamycin resistance gene. The resulting plasmid was transformed first into E. coli DH-10B, using standard methods known in the art. […]
(§1) A secondary screen was performed to determine initial rate of transglutaminase in the presence of the pro-peptide variants using transglutaminase-catalyzed labeling of casein with dansylcadaverine (e.g., a commercially available kit such as the Transglutaminase Fluorogenic Activity Assay Kit, T036, Zedira, Germany). Transglutaminase activity was monitored by measuring the fluorescence (excitation wavelength 332 nm; emission wavelength 500 nm) using a BioTek Synergy H1 microplate reader. Transglutaminase-catalyzed covalent coupling (crosslinking) of monodansylcadaverine with N,N-dimethylcasein produces a product that causes a shift in intensity and wavelength of fluorescence of the dansyl group now linked to the casein. The relative transglutaminase activity is shown by increase of fluorescence intensity over time. […]

[3] = biological target: evolved variant of mature Streptomyces mobaraensis transglutaminase, including a two amino acid linker and hexa-his tag (Streptomyces mobaraensis) (UniProt P81453); assay: cell-based or functional assay
[4] = biological target: T2, thermostable mature transglutaminase variant (SEQ ID NO: 3) (Streptomyces mobaraensis, UniProt P81453); assay: pH-responsiveness screen: casein/dansylcadaverine assay at pH 6.0 and pH 8.0 in the presence of pro-peptide variants (Method A); assay type: biochemical; details: casein assay
T2 construct: made in house; host or cells: E. coli (lysate)
From the text: (§2) Method A. A bicistronic expression vector encoding the wild-type pro-domain of transglutaminase (SEQ ID NO: 2) and a thermostable mature transglutaminase variant (SEQ ID NO: 3) as separate polypeptides was cloned as described in PCT/US20/49226 (WO2021/178001 A1). The vector was used as a template for synthesis of a random mutagenesis library targeting the pro-domain coding sequence to create pro-domain peptide variants.
Method A. Plasmid libraries containing mature transglutaminase and variant pro-domain peptides were plated on Luria-Bertani (LB) agar plates containing 50 μg/mL of kanamycin. […]
as §1, with “casein.” for “casein. The relative transglutaminase activity is shown by increase of fluorescence intensity over time.”

[5] = biological target: T2, thermostable mature transglutaminase variant (SEQ ID NO: 3); assay type: biochemical; details: casein assay; Method A
From the text: as §2
Method A. Plasmid libraries containing mature transglutaminase and variant pro-domain peptides were plated on Luria-Bertani (LB) agar plates containing 50 μg/mL of kanamycin. After incubation for at least 16 hours at 37° C., colonies were picked and inoculated into 1 mL of LB broth with 50 μg/mL kanamycin in one well of a 96 deep well culture plate. The plate was covered with a breathable seal and incubated overnight at 37° C. with 400 rpm of shaking. 10 μL of the seed culture was used to inoculate 1 mL of media in a 96 deep well culture plate for expression. The expression plate was allowed to grow for 6-8 hours at 30° C. Expression was then induced by adding isopropyl beta-D-1-thiogalactopyranoside (IPTG) to a final concentration of 1 mM and the temperature was reduced to 20° C. while growth continued for an additional 15 hours. Cells were harvested by centrifugation at 4000 rcf for 30 minutes and pellets were frozen at −80° C.
as §1, with “time. The data were normalized for transglutaminase expression levels in E. coli lysate as described above. Pro-domain variants were identified based on their ability to alter the activity of the mature transglutaminase enzyme.” for “time.”
It is believed that these pro-peptide variants have reduced binding affinity with mature mTgase.

[6] = tested on: E. coli ATCC 8739; assay: MIC determination of bacterial cultures (OD600); assay type: cell-based; details: E. coli ATCC 8739, Mueller Hinton broth
Procedure: E. coli ATCC 8739 and C. albicans ATCC 10231 were acquired from the American Type Culture Collection (ATCC) (Manassas, VA) and maintained as −80° C. frozen glycerol stocks.
For Minimum Inhibitor Concentration (MIC) determination of bacterial cultures, E. coli ATCC 8739 was grown overnight (16-18 hours) in Mueller Hinton broth at 37° C. The following day, the cell density of the saturated cultures was calculated using OD600 and cultures were diluted to 10^4 to 10^6 CFU/mL in sterile Mueller Hinton broth to generate the inoculum, and 100 μL of the inoculum was combined with 100 μL of serially diluted transglutaminase variant at a range of 0.0001-0.05 weight percent. Growth curves were measured by OD600 on a BioTek® Synergy Plate Reader. All test conditions were performed in triplicate. MIC was determined to be 50 ppm (0.005% w/v) against E. coli for the enzyme described in SEQ ID NO: 5 using OD600.

Molecule | Thermostability [1] | also measured
D2I, E2S, D21T: combination variant of pro-peptide SEQ ID NO: 2, Method B; E2S probably E7S (MINGAGSETKSYAETYRLTATDVANINALNESAPAASSAGPSFRAP) | — | Inhibition [2]: >2 fold
D2S, E7S, D21T, D22Q: combination variant of pro-peptide SEQ ID NO: 2, Method B (MSNGAGSETKSYAETYRLTATQVANINALNESAPAASSAGPSFRAP) | — | 
D21T, D22Q: combination variant of pro-peptide SEQ ID NO: 2, Method B (MDNGAGEETKSYAETYRLTATQVANINALNESAPAASSAGPSFRAP) | — | 
E7S, L18V, D21I: combination variant of pro-peptide SEQ ID NO: 2, Method B (MDNGAGSETKSYAETYRVTAIDVANINALNESAPAASSAGPSFRAP) | — | 
D2I, D22Q: combination variant of pro-peptide SEQ ID NO: 2, Method B (MINGAGEETKSYAETYRLTADQVANINALNESAPAASSAGPSFRAP) | — | 
E7S, D21T: combination variant of pro-peptide SEQ ID NO: 2, Method B (MDNGAGSETKSYAETYRLTATDVANINALNESAPAASSAGPSFRAP) | — | 
D21T: substitution variant of pro-peptide SEQ ID NO: 2 (MDNGAGEETKSYAETYRLTATDVANINALNESAPAASSAGPSFRAP) [Variant D21T] |  | Inhibition [2]: —
pro-peptide variant D2I, E2S, D21T (Method B) |  | Inhibition [3]: > 2 fold
L18V, D21T: combination variant of pro-peptide SEQ ID NO: 2, Method B (MDNGAGEETKSYAETYRVTATDVANINALNESAPAASSAGPSFRAP) | — | 
D2F: substitution variant of pro-peptide SEQ ID NO: 2 (MFNGAGEETKSYAETYRLTADDVANINALNESAPAASSAGPSFRAP) [Variant D2F] | — | 
SEQ ID NO: 4 (protein) MDNGAGEETKSYAETYRLTADDVLNINAETYRLTADDVRNINALNESAPAASSAGPSFRAP |  | activity at pH 6.0 relative to pH 8.0 compared to the wild-type pro-peptide [4]: increase in activity at pH 6.0 relative to pH 8.0 compared to the wild-type pro-peptide; transglutaminase activity relative to the wild-type pro-peptide [5]: decrease in transglutaminase activity relative to the wild-type pro-peptide
SEQ ID NO: 3: thermostable variant of Streptomyces mobaraensis transglutaminase (protein) MDPDDRVTPPAEPLDRMPDPYRPSYGRAETVVNNYIRKWQQVYSHRDGRKQQMTEEQREWLSYGCVGVTWVNSGQYPTNRLAFASFDEDRFKNELKNGRPRSGETRAEFEGRVAKESFDEEKGFQRAREVASVMNRALENAHDESAYLDNLKKELANGNDALRNEDARSPFYSALRNTPSFKERNGGNHDPSRMKAVIYSKHFWSGQDRSSSADKRKYGDPDAFRPAPGTGLVDMSRDRNIPRSPTSPGEGFVNFDYGWFGAQTEADADKTVWTHGNHYHAPNGSLGAMHVYESKFRNWSEGYSDFDRGAYVITFIPKSWNTAPDKVKQGWP |  | MIC [6]: outside the range of detection
